The target of assay [1] is CA724 胃癌抗原 (B72.3抗原). Kind of assay: direct ELISA, antigen coated at 100 ng/mL, pNPP substrate read through the fused AP; still in linear range, no plateau. For orientation: In an ELISA, binding on a coated surface is turned into a signal by an enzyme label.
The target of assay [2] is CA724 胃癌抗原 (B72.3抗原). Kind of assay: ELISA, antigen coated at 100 ng/mL, HRP goat anti-mouse Fab secondary, OD450.
Assay [3] concerns the target CA724 胃癌抗原 (B72.3抗原). Kind of assay: direct ELISA, antigen coated at 100 ng/mL, pNPP substrate read through the attached ALP; plateau value.

Sequence of Fab抗体与碱性磷酸酶融合蛋白(Fab)2-AP (CA724-B72.3 Fab fused to calf intestinal alkaline phosphatase, Fab:AP monomer 1:1) (light, form in doubt): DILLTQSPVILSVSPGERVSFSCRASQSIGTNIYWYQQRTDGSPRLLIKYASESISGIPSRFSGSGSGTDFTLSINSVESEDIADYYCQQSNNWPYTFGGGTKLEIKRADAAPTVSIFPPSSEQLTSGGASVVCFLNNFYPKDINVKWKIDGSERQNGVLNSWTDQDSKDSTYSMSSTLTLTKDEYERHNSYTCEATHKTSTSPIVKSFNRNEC

In turn, “Fab抗体与碱性磷酸酶融合蛋白(Fab)2-AP (CA724-B72.3 Fab fused to calf intestinal alkaline phosphatase, Fab:AP monomer 1:1)” yielded a 吸光值 (405nm) with CA724 胃癌抗原 (B72.3抗原) [1] of 1.2 OD405.

Consider “对照抗体化学标记ALP蛋白 (CA724-B72.3 antibody chemically labelled with alkaline phosphatase)”, for which the fold decrease of high-end antibody activity (against the original antibody / fusion protein) with CA724 胃癌抗原 (B72.3抗原) [2] is 1 倍. The substance further returned a 最高吸光值 (405nm) in the assay with CA724 胃癌抗原 (B72.3抗原) [3] of 0.8 OD405.

The values above are taken from CN113621079A.
